Measurements taken from publication PMC8837033.

Target: Shp-2 (UniProt P35235)
Assay: anti-FLAG co-IP, Shp-2 immunoblot
Conditions: reference: wild type, 1 mM pervanadate; sites Y447,Y470

How did the “binding against the reference” value turn out when “Siglec-8 (from UniProt Q9NYZ4) Y447F+Y470F, 1 mM pervanadate” was run?
The value was “lost”.
